US11110182B2, “Multifunctional RNA nanoparticles and methods for treating cancer and therapeutic resistant cancer” (University of Cincinnati, priority 2016, dated 2021)

B1: pRNA-HER2apt-siMED1: 3-WJ pRNA nanoparticle bearing a HER2-targeting RNA aptamer and two different MED1 siRNAs; strands p1 SEQ ID NO: 3, p2 SEQ ID NO: 4 (nucleic acid)
chain 1: GGACAGUGAAAGUGAGUCAAAGGAUCAAUCAUGGCCAAAGAUGUUACUUUGAGAGCCUU
chain 2: GGCUCUCAAAGUAACAUCUAAGGCCAUGUGUAUGUGGGGGGAGGACGAUGCGGUCUGCUGUGCUUGAUAUGCCCCAGACGACUCGCCCCCCACAUACUUUGUUGAUCCAAUGACUCACUUUCACUGUCCUU
modifications: 2'-F modification; third strand may lack entry; pRNA-HER2apt-siMED1, p1; pRNA-HER2apt-siMED1, p2
B2: pRNA-HER2apt^mut-siMED1: control pRNA nanoparticle with mutant HER2 aptamer; strands p1 SEQ ID NO: 5, p2 SEQ ID NO: 6 (nucleic acid)
chain 1: B1 chain 1
chain 2: GGCUCUCAAAGUAACAUCUAAGGCCAUGUGUAUGUGGGAUGAGGAGUAUGAAGAUACCUGUACUUGAUAUGCCCCAGACGACAUUCCCCCCACAUACUUUGUUGAUCCAAUGACUCACUUUCACUGUCCUU
modifications: pRNA-HER2apt(mut)-siMED1, p1; pRNA-HER2apt(mut)-siMED1, p2

Legend:
Format in all cases: cell-based, human
MDA-MB-231 cells = test: pRNA nanoparticle cellular uptake assay (confocal, flow cytometry), MDA-MB-231; settings: MDA-MB-231 (HER2-negative), AF647-conjugated, 10 μg/mL, confocal microscopy
From the text: (§1) FIG. 8A) HER2 expression in BT474 and MDA-MB-231 cells determined by western blot analyses. FIG. 8B) The binding of AF-647-labeled pRNA-HER2apt-siMED1 and its mutant nanoparticles to MDA-MB-231 and BT474 cells examined by confocal microscopy. Green represents the immunofluorescent staining of HER2, and blue represents nuclear staining with DAPI. FIG. 8C) The internalization of AF647-labeled pRNA nanoparticles by MDA-MB-231 cells examined by confocal microscopy. Green represents the immunofluorescent staining of β-actin. Scale bar: 10 μm. FIG. 8D) The cellular uptake of AF647-labeled pRNA nanoparticles by MDA-MB-231 cells quantified by flow cytometry. FIG. 8E) HER2 expression in BT474 xenograft tumors was examined by western blot analyses. FIG. 8F) MDA-MB-231 cells were incubated directly with (as indicated by-) or transfected with pRNAs using lipofectamine 2000. At 48 h post treatment, MED1 protein levels were determined by western blots.
(§2) Cell culture. […] The hydrodynamic diameter and Tm value of pRNA nanoparticles were determined using dynamic light scattering and TGGE assay, respectively, as previously described.^54 The AFM imaging of the pRNA nanoparticles was performed at the University of Nebraska Medical Center imaging facility as previously reported.^55 Briefly, the pRNA nanoparticles (5 μL) were deposited on APS modified mica ^56 for a total of 2 min of incubation time. […]

MED1 = MED1 protein level by western blots in MDA-MB-231 cells; settings: MDA-MB-231, transfected, 48 h
From the text: as §1, §2

MCF-7/TAM cells = test: MTT assay, MCF-7/TAM cells; settings: 10 μg/mL pRNA and 1 μM tamoxifen, 48 h
Experimental: FIGS. 10A-10D. Evidence that pRNA-HER2apt-siMED1 nanoparticles silenced MED1 expression and sensitized two other HER2+ breast cancer cells to tamoxifen treatment. FIG. 10A) Two HER2-overexpressing breast cancer cell lines MCF7/TAM and FIG. 10B) MCF7/HER2, were treated with 10 μg/mL pRNA-HER2apt-siMED1 nanoparticles or scramble control for 48 h, and then MED1 protein level was determined using western blots. FIG. 10C) MCF7/TAM and FIG. 10D) MCF7/HER2 cells were treated with 10 μg/mL pRNA nanoparticles and/or 1 μM tamoxifen (TAM) as indicated for 48 h, and then cell growth was determined using an MTT assay.
Since MED1 has recently been reported to play key roles in tamoxifen resistance of human breast cancer, the combinational effects of pRNA-HER2apt-siMED1 nanoparticles with tamoxifen on the growth and metastatic potential of BT474 cells was examined. […] The combinational effect of pRNA-HER2apt-siMED1 nanoparticles with tamoxifen treatment on two other HER2-overexpressing breast cancer cells MCF-7/HER2 and MCF-7/TAM were also confirmed (FIGS. 10C-D).

| Molecule | binding and internalization into cells (MDA-MB-231 cells) | MED1 protein level after transfection with lipofectamine 2000 (MED1) | combinational effect with tamoxifen on cell growth (MCF-7/TAM cells) |
| --- | --- | --- | --- |
| B1 | not | MED1 silencing | confirmed |
| B2 | – | MED1 silencing | – |
